How the values were obtained:
huIL-27 [1] = biological target: T1, huIL-27 (Homo sapiens, UniProt Q14213+Q8NEV9); test: Phospho-STAT3 neutralization assay, mouse spleens, huIL-27; format: cell-based; details: mouse spleens; phospho-STAT3; read-out: EC90 concentration
T1 sequence (Q14213 21-229): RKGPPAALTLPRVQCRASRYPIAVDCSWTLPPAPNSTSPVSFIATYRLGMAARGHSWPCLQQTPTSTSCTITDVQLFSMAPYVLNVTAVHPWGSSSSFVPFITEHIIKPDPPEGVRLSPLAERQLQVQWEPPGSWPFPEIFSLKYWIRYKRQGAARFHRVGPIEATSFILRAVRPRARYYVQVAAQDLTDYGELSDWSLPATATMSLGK
T1 sequence (Q8NEV9 29-243): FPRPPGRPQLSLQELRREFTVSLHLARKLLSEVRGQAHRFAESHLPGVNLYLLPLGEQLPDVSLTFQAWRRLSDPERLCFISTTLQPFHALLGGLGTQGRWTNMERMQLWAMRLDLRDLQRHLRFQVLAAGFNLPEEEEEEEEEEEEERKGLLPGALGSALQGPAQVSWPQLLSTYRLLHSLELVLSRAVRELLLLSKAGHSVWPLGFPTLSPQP
Source text: (§1) Whole mouse spleens were harvested from C57 B1/6 mice and washed two times with 1×PBS before being plated out at 2×10^5 cells/well in assay media (RPMI 1640 plus 10% fetal bovine serum) in 96-well, round-bottom tissue culture plates. Total human PBMC (peripheral blood mononuclear cells) were thawed from a frozen vial collected from a leukapherisis donation and washed two times with 1×PBS before being plated out at 10^6 cells/well in assay media in 96-well, round-bottom tissue culture plates. […] Following pre-incubation, treatments were added to the plates containing the cells and incubated together at 37° C. for 15 minutes.
(§2) Following incubation, cells were washed with ice-cold wash buffer (BIO-PLEX Cell Lysis Kit, BIO-RAD Laboratories, Hercules, Calif.) and put on ice to stop the reaction according to manufacturer's instructions. […]
(§3) Capture beads (BIO-PLEX Phospho-Stat3 Assay, BIO-RAD Laboratories) were combined with 50 μL of 1:1 diluted lysates and added to a 96-well filter plate according to manufacture's instructions (BIO-PLEX Phosphoprotein Detection Kit, BIO-RAD Laboratories). […] After the final wash, beads were resuspended in 125 μL/well of bead suspension buffer, shaken for 30 seconds, and read on an array reader (BIO-PLEX, BIO-RAD Laboratories) according to the manufacture's instructions. Data were analyzed using analytical softward (BIO-PLEX MANAGER 3.0, BIO-RAD Laboratories). […]

huIL-27 [2] = biological target: T1, huIL-27; test: Phospho-STAT3 neutralization assay, total human PBMCs, huIL-27; format: cell-based; details: total human PBMCs; phospho-STAT3; read-out: EC90 concentration
Source text: as §1, §2, §3

BHK-mIL-27R cells = biological target: T2, BHK-mIL-27R cells (Mus musculus, UniProt O70394); test: Competition binding against 125I-labeled A1426F; details: 0.1 nM label; competitor 50 nM to 7.6 pM; 4 hours on ice
T2 construct: expressed in transfected cells; host or cells: BHK cells
T2 sequence (O70394 25-623): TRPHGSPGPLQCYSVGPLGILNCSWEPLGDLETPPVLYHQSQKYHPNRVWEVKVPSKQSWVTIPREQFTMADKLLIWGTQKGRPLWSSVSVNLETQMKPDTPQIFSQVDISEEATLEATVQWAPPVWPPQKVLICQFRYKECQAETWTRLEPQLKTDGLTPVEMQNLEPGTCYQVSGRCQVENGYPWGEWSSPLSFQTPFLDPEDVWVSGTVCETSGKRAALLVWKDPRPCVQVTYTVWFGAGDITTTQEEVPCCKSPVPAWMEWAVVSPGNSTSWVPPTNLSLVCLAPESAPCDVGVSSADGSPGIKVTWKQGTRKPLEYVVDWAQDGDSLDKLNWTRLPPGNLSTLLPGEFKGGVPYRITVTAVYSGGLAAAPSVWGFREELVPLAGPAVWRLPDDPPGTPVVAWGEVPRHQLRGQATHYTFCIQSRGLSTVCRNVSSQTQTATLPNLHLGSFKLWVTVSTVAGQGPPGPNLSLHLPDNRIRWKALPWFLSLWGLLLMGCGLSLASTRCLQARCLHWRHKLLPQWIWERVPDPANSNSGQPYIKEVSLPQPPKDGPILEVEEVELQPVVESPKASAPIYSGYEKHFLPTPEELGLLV
T2 sequence (Q00560 23-917 partner): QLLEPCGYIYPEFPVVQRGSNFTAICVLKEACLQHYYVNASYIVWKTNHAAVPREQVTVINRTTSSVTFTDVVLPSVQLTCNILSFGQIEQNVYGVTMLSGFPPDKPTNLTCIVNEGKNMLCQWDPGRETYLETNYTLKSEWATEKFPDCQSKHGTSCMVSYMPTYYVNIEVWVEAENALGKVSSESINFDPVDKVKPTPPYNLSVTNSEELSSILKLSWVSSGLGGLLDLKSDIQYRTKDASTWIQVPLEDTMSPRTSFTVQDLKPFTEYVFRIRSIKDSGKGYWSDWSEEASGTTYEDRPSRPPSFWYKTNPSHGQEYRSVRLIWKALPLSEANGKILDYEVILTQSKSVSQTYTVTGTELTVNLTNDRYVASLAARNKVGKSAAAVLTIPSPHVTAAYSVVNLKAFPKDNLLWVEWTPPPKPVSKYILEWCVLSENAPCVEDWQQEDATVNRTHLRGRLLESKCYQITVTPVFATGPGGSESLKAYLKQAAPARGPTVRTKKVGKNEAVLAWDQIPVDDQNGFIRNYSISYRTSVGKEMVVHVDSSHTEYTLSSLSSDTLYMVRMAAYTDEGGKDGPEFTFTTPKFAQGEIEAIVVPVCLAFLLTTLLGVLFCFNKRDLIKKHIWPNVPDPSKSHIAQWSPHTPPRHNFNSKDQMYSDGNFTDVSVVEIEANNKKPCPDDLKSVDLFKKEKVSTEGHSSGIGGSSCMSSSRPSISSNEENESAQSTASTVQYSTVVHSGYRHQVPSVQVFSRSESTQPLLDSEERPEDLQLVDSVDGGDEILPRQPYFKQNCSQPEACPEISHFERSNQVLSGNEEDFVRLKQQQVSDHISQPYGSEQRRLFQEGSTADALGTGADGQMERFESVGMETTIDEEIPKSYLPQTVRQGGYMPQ
Description: For competition binding studies, ^125I-labeled A1426F (0.1 nM) was added to preparations of unlabeled A1426F, mouse IL-27 p28 with a C-terminal polyhistidine tag (A1406F), or an unrelated control protein titered from 50 nM to 7.6 pM in 1:3 serial dilutions. These preparations were incubated with BHK-mIL-27R cells for 4 hours on ice. The cells were then washed three times with ice-cold binding buffer, then solublized with 1N NaOH. These lysates were then checked for bound A1426F by checking for radiation with a gamma counter.

EC90 (huIL-27 [1])	EC90 (huIL-27 [2])	competition with ^125I-labeled A1426F for binding (BHK-mIL-27R cells)	Substance
2 nM	2 nM		huIL-27: human IL-27 ligand [reference compound]
		unable to compete	A1406F: mouse IL-27 p28 with a C-terminal polyhistidine tag

Source: US20100092465A1, “TREATMENT OF GRAFT-VERSUS-HOST DISEASE” (priority 2006, published 2010)
